Assay: label from the status in PepcDB records
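Also: failed if final PepcDB status was selected cloned or expressed and not failed if soluble or beyond.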

Sequence | protein production
MQIFVNGETIETEVITLNLLLEELGYEGNWLATAVNAEVVPIDARSRCVLHEGDKIEILSPMQGG | failed
MQIGGRQHGDWTHYSVDSDLVVAADAWQVSLGLPGGVFPPDVEPGAMVKVQVGGETVLMGRIDDISHSVASGSHQLTLSGRDLAGMLLDCSAPLFTGKGMTLQDVLDNVVKPLGIANIRVDAKARGQIEKINVDPGNSAWDVLTRAAQANGLTAWFDPDGTLLVGGPDYSRPASARLILRRDGKGNNVLSLAETRSHAQRYSELTLLGQGHGQSLTPGRHAMRHHVFDSDVCYHKPRIQVEPDAASPAELAARADKMLADARLAGYTLTATVAGHRDSQGALWTPGQRIEVESEPHGINGTYFLMARTFEGGRGQGSVTRLTLKEDKCWIPVMRAGKQ | failed
MQIIEGKLQLQGNERVAILTSRFNHIITDRLQEGAMDCFKRHGGDEDLLDIVLVPGAYELPFILDKLLESEKYDGVCVLGAIIRGGTPHFDYVSAEATKGIAHAMLKYSMPVSFGVLTTDNIEQAIERAGSKAGNKGFEAMSTLIELLSLCQTLKG | failed
MQIKELAELTGVSVRTLHHYDKIGLLVPQKDDWNGYRIYSEKDVDKLQQILFFKELDFPLKKIQQILDDPLFDKNVALDMQRHLLIEKKQRIETMLATLDLTIKNEKGEITMTNKEKFTGFDFSSNPYEEEARKLWGDKVVEKANEKVNNMSEKEQLTLKESFDAEFRHLASVRKLTPESEEAQLEIDHFFHYLNDTHGNIYSLEAFASLGEMYVNDERFTKNIDQFGDGLSQFLQEAMTIYAKNK | not failed
MQISIKTVKGKSINLEVADSSDTIDLKINGEPTRQLVLRLGPAVLMRIFVSTIKEKTFILEVKGSDTIKKLKSMIHDQGGPPVDQQDLNHLGTKLKNNATISDYNIKPDANLVIMQNGCIC | failed
MQITIKVLKGKDCTIEVAPTSTILEVKHQIEAELQISATNQKLLLLGRPLNNEQTIASYPNIKEGTKLNLVVIKP | failed
MQITIKVLKGKDCTIEVAPTSTILEVKHQIEAELQISATNQKLLLLGRPLNNEQTIASYPNIKEGTKLNLVVIKPCLRDSILRGFRKHYSEPLAERMTNEFMADFERKINEQSLDDLERLADSIVNRAAT | failed
MQIVKKEKFILKEYTFENGRTIPVQMGYETYGTLNRERSNVILICHYFSATSHAAGKYTAHDEESGWWDGLIGPGKAIDTNQYFVICTDNLCNVQVKNPHVITTGPKSINPKTGDEYAMDFPVFTFLDVARMQCELIKDMGIARLHAVMGPSAGGMIAQQWAVHYPHMVERMIGVITNPQNPIITSVNVAQNAIEAIRLDPSWKGGKYGEEQPMKGLQLANRMMFMNAFDEHFYETTYPRNSIEVEPYEKVSSLTSFEKEINKLTYRSIELVDANSWMYTAKAVLLHDIAHGFSSLEEALSNVEANVLMIPCKQDLLQPSRYNYKMVDLLQKQGKYAEVYEIESINGHMAGVFDIHLFEKKVYEFLNRKVSSFV | not failed
MQKCSLITVISLSVLMLAGCTTTYTMTTRTGEIIETQGKPEVDTATGMTKYADAYGYHRVIKTSEIVQTTEGASKLDWLEHHHHHH | failed
MQKINIDRHATAQINMLANKLMLKSSTAYTQKFGIGMTEWRIISVLSSASDCSVQKISDILGLDKAAVSRTVKKLEEKKYIEVNGHSEDKRTYAINLTEMGQELYEVASDFAIEREKQLLEEFEEAEKDQLFILLKKLRNKVDQM | not failed
MQKIPGYENTNSEVPDKKYWLYGLMIVFFALAFRLFELGERVLHHDESIHASFTLKLLEHGEYSYDPAYHGPFLFHSTAAVFHFLGITDTTSRLVPVLFGVATILLLFLLKKELGKNGVLWSMFLLAFSPSMVYFSRFFRNDMIIIFCTLAAVTGAFRYLDSIHSLKRYPYLVLAASSLAVAVSSKENAYIILAVFGAYAGLGFLYWICSDWKKENMGLKETLRSKTSALLPYLPEIILSGALSVFIIMFFYSSAFRYDVSLFSIVERAFNHWMEMHSIERIGGPFYYYIPILLRYEIPVVLFGAAGFFYFLFNRVRNKGQNYSFFLFLCYWALTSLLLYSYIQEKVPWLVVHIVLPFGLLAGAFLGEVFSKKNKDGQPKKPDYPGKIRALLTVILVLTLLVFISQCISVNYYRSMEDEELITYTQASPDIRILMEKIEGFNESPDTLRIYVIDQYQLYWPLPWYLRDYERAAYSSKPPSSSKYDAIIVPISCDMYRELSEEEYSSYNFTLRPGRDFTLYYNNKLEQQ | failed
MQKKNFWQIYFGKDPFSKAEFIKAWIGWWVIAIVLLGVLSICTSLNLRGIGIALGFGFCQIHARYLTFVGWNKFIGVLGVFPVTNIILFIVLLFTKKK | failed
MQKKSIYVAYTGGTIGMQRSDNGYIPVSGHLQRQLALMPEFHRPEMPDFTIHEYAPLIDSSDMTPEDWQHIANDIQQNYDLYDGFVILHGTDTMAFTASALSFMLENLAKPVIITGSQIPLAELRSDGQTNLLNALYLAANHPVNEVSLFFNNQLFRGNRTTKAHADGFDAFASPNLSVLLEAGIHIRRQSSVVSPTSNGPLIVHRITPQPIGVVTIYPGISGAVVRNFLLQPVKALILRSYGVGNAPQKAELLDELKNASDRGIVVVNLTQCISGSVNMGGYATGNALAQAGVISGFDMTVEAALTKLHYLLSQSLSPNEIRQLMQQNLRGELTDTQ | not failed
MQKKTQKLTVYVIVGLLIISLVGTSFMFLGDMRPTVGKNYQDQINSLKQALEANPQDTQTRLALADTYYDWGMQTLSQDMAEENLATTTSILQQAVTEYQEVLKTEKNVNILVDMATAAFYTSQNELADQTFQEALQEDPNFYNGLYNYGVFLYSQGDYGKAIEQWEKALALENISTDDKERLERNIKLAQDGIVQQFQQPENGDSSDANAEAK | failed
MQKLVEQVWDYTKHAKFYSYRPNYAPKTIDMLISLVGKKDIKVADIGAGTGNLSIMLLERGCKVVSVEPNDAMREIGIERTKDQKIDWVRATGLNSTLQNSEFDWVTFGSSFNVMDRNEALEEAHRLLKSEGYFSCMWNHRDLNDPVQKIAEDTIVEFVPNYTRGTRREDQRPIIESRKDLFDNIVYIEEDFYFHQSIENYINAWKSVKNPYWDLETDEGNELFNKISNKISQRLPKEFSIKYTTRCWSAKKI | failed
MQLHELVNTLGQDLQRRYGEKVHKLTLHGGFSCPNRDGTIGRGGCTFCNVASFADEEVQIKSIHEQLKDRAGEIHRAKKYLAYFQAYTSTYAEVQVLKNMYEEALKAADIVGLCVGTRPDCVPDSVLDLLSDYVNQGYEIWLELGLQTANNDTLKRINRGHDFECYAEITQRARALGIKVCTHLIVGLPKETRDDNIETLQKVLAVGTDGIKLHGLHIVEGSTMAKAWRAGRLEAPGLEEYVAIASEMIRMTPADVVFHRVSSAARRPTLLSPLWCENRWLAMTEIGRALNKDGAQGSLIGKPFIYTKPELKADCSINN | failed
MQLITFLHEFIKHPKHTGAIAPSSKILAKKMVDVIDFNKAKCIVELGPGTGVFTKEIMKRKKKETIFLLIEINEVFFKELKRKFKDEQNVIVVHGSAENIKKYMGEHNIECIDYVLSGLPFTSLPEEVSKRILNNAMEAIHENGEFITFQYSLVKKGFIQHFFPEITLEKVWLNFPPAYVFSCKKELRRAYA | failed
MQLNQTNTPFNEEQLALINQLLPMLTPEQQHWLSGYLLNPATTSVSDNKTDIQENEAGITETETSTSTDQSVSEPVSASTEPLDVHVLYGTETGNAEEIAETFETKLKSQNLNVHLWDMDDFPRDSLPEVEHLFIICSTQGVGEPPINALDLYDYLHGDDAPQLDQVNFAVLALGDQDFPDFCQAGKDFDYILGQLGANRVADRVDCDFDYEETAEQWITNMLELLTQASSNTNEETPSVENEDVTIEEPQAPYSKSNPFQAEVLKNTILTQPEASREVRHLEISLEGYREAYEPGDSLVVIPQNDPVLVNQLIDALNWDAETPIQMNDSDSMRSLKEALTHDFEIAKLTPVLMKNAAELLGNPMLNANIQKSEWVQNYIYGKDVIDLIRDFTPVALEPNMLPQLLRKLPPREYSIASSNKVNPNSVHITVRVVKYEAHRRERFGVCSVQLADRTSVGDKLPVYLKKNPNFKFPYDTETPVIMIGAGTGIAPYRAYLQERAYLNLKGEQWLIFGNQNYHHDFLYKDDLEQWLEEGVLSKLDLAFSRETENKIYVQHRIEENSAEFYKWIQAGATIYLCGNKDEMASGVHESLIKVLIKEGNLDETEAEAYLTEMIKNQRYQRDVY | failed
MQLQLICEDPSQQSHLDELAARWQLSHTDESDFALVLTAERLELRKVDEPKLGAIFVDLIGGAVGHRRKFGGGKGQAIAKAAGLNKGATPTVLDGTAGLGRDAFVLASLGCKVQMVERHPVVAALLDDGLARAKQDPEIGTWVSERMSLIHASSHDALDQLAQDREFVKPDVVYLDPMYPHPENKKKSALVKKEMRVFQSLVGADLDADGLLEPALALATKRVVVKRPDYANWLNEQKPSMAIETKKNRFDVYVKASMALEHHHHHH | not failed
MQLSGRSSSGLGRAGQLLRRPEVLAFLPALSLLAYWLGGERALVFVALGLPLFYATVGAFRPAAPSVTPDGLALRPQVIASLDRVLQDRESTGRTTACLVLQFDGMDKLLDRHGRATQSEVLARCCDRLCSTLREGDTVARLEGGGLAVALHPVRRLDLQSVVLLAGRLQTAIAAPISVEGTRIHVTCSIGFCLAERTPAPTGRALLDAAQMAADEASRNGPGAVRAYALGMSRNRADRDADRGLLETALDTGQFTGWFQPQIRTEDGAIGGFEVLSRWQHPERGLLLPQDFLPAIERAGLSERLGEVMLFQALTALRHWDRAGLCVPCVAVNFSATDLRNPRLVDRLKWELDRFELTPARLSVEILETVVAEGASDVVVHNIAGLSACGFGVDLDDFGTGHASITTIRRFALRRLKIDRSFVTRADSDAAQRTMLAAIISMARQLGLETLAEGVETPGELATLTALGCGYLQGYAIARPMPLSDATAWLENRRVRLPLAARCATPGS | failed
MQLSSLTAVSPVDGRYAGKTQALRPIFSEYGLIRFRVMVEVRWLQRLAAHPQITEVPAFSAQANAILNTLAEDFSVEHAERVKEIERTTNHDVKAVEYLLKEQAAKLPELENVSEFIHFACTSEDINNLSHALMLREGRDTVMLPLMRQIADAIRELAIRFADVPMLSRTHGQPASPTTLGKELANVVYRLERQITQIAAVPLLGKINGAVGNYNAHLSAYADIDWEANARAFIEDELGLGFNPYTTQIEPHDYIAELFDAVARFNTILIDFDRDIWGYISLGYFKQRTIAGEIGSSTMPHKVNPIDFENSEGNLGIANALFQHLASKLPVSRWQRDLTDSTVLRNLGVGFAHSVIAYEASLKGISKLELNEQRIAADLDACWEVLAEPIQTVMRRYNIENPYEKLKELTRGKGIGPEALQTFIDGLDMPAQAKAELKKLTPANYIGNAAAQAKRI | not failed
MQMIKPPVQRHSHRRHRLLRSLGHQFSFGFFALCEKQRECKCDMATVMTTNLYNVARHSPHPIIFVCGSWSSLIESLIESAKEEEESMRRRS | failed
MQMNNHIRLRKAEGKWVIRTDSAVLGETLNAIELTEGSRDPVIYFPREDVAMVMFDKSEKVTACPLKGEASYYSIVGASGTLKDAAWSYESPKEGLEAIAGYLAFAPDCTKVGQY | not failed

Source: a protein production outcome set (Wang et al. 2014)
